Measured values as given in patent US20230037815A1 (CULLINAN THERAPEUTICS, published 2023).
Numbering of substitutions follows the chain as printed.

B1: CNG-CD19-7 (antibody, V domains shown)
VH: QVQLQESGPGLVKPSQTLSLTCTVSGGSISTSGMGVGWIRQHPGKGLEWIGHIWWDDDKRYNPALKSRVTISVDTSKNQFSLKLSSVTAADTAVYYCARMELWSYYFDYWGQGTLVTVSS
VL: EIVLTQSPATLSLSPGERATLSCSASSSVSYMHWYQQKPGQAPRLLIYDTSKLASGIPARFSGSGSGTDFTLTISSLEPEDFAVYYCFQGSVYPFTFGQGTKLEIK
notes: tested as IgG; also called parental antibody
B2: CNG-CD19-704 (antibody, V domains shown)
VH: QVQLQESGPGLVKPSQTLSLTCTVSGGSIASGMGVGWIRQHPGKGLEWIGHIWWDDDKRYNPALKSRVTISVDTSKNQFSLKLSSVTAADTAVYYCARMELWSYYFDGWGQGTLVTVSS
VL: B1 VL
notes: tested as IgG produced in yeast
B3: CNG-CD19-709 (antibody, V domains shown)
VH: B1 VH with G33T, H52F, A64N, I71M, Y109P
VL: B1 VL with S30G, S55F
notes: as for B2
B4: CNG-CD19-710 (antibody, V domains shown)
VH: B1 VH with G27V, G33S, I53A, Y109P
VL: B1 VL with V29F
notes: as for B2
B5: CNG-CD19-706 (antibody, V domains shown)
VH: B2 VH with G36S, G108P
VL: B1 VL with S30G
notes: as for B2
B6: CNG-CD19-707 (antibody, V domains shown)
VH: B1 VH with G33T, H52F, A64N, I71M, Y109P
VL: B1 VL with S30G
notes: as for B2
B7: CNG-CD19-708 (antibody, V domains shown)
VH: B1 VH with G33T, H52F, A64N, I71M, Y109P
VL: B1 VL with S30G, A54S
notes: as for B2
B8: CNG-CD19-702 (antibody, V domains shown)
VH: B1 VH with I29T, G37S, A64V, Y109P
VL: B1 VL
notes: as for B2
B9: CNG-CD19-703 (antibody, V domains shown)
VH: B1 VH with G33T, H52F, A64N, I71M, D108E
VL: B1 VL
notes: as for B2
B10: CNG-CD19-701 (antibody, V domains shown)
VH: B1 VH with G33T, H52F, A64N, I71M
VL: B1 VL with S30G
notes: as for B2
B11: CNG-CD19-705 (antibody, V domains shown)
VH: B1 VH
VL: B1 VL with S30G, K52S
notes: as for B2
B12: CNG-CD19-1 (antibody, V domains shown)
VH: QVQLVQSGAEVKKPGASVKVSCKASGYTFTDYIMHWVRQAPGQGLEWMGYINPYNDGSKYTEKFQGRVTMTSDTSISTAYMELSRLRSDDTAVYYCARGTYYYGPQLFDYWGQGTTVTVSS
VL: DIVMTQTPLSLSVTPGQPASISCKSSQSLETSTGTTYLNWYLQKPGQSPQLLIYRVSKRFSGVPDRFSGSGSGTDFTLKISRVEAEDVGVYYCLQLLEDPYTFGQGTKLEIK
notes: as for B1
B13: CNG-CD19-110 (antibody, V domains shown)
VH: B12 VH
VL: B12 VL with V56S, Y101P
notes: as for B2
B14: CNG-CD19-102 (antibody, V domains shown)
VH: B12 VH with T28E, G66P
VL: B12 VL
notes: as for B2
B15: CNG-CD19-109 (antibody, V domains shown)
VH: B12 VH with T28D, M34V, K59L
VL: B12 VL with S28Q, V56A, T102S
notes: as for B2
B16: CNG-CD19-108 (antibody, V domains shown)
VH: B12 VH with T28D, M34V
VL: B12 VL with S32V, Y101P
notes: as for B2
B17: CNG-CD19-103 (antibody, V domains shown)
VH: B12 VH
VL: B12 VL with S32A, K58R, T102S
notes: as for B2
B18: CNG-CD19-107 (antibody, V domains shown)
VH: B12 VH with T28D, G66H
VL: B12 VL with K58R
notes: as for B2
B19: CNG-CD19-104 (antibody, V domains shown)
VH: B12 VH with T28D, M34V, Q106E
VL: B12 VL with S26G, K58R
notes: as for B2
B20: CNG-CD19-101 (antibody, V domains shown)
VH: B12 VH with T28D, E62D, G66E, Q106E
VL: B12 VL with S32T, V56A
notes: as for B2
B21: CNG-CD19-105 (antibody, V domains shown)
VH: B12 VH with T28E, Q65E, Q106E
VL: B12 VL with S28R, K58R, Y101P
notes: as for B2
B22: CNG-CD19-106 (antibody, V domains shown)
VH: B12 VH with T28D, K59E
VL: B12 VL with S32A, K58R
notes: as for B2
B23: CNG-HSA-114 (VHH)
VHH: KVQLVESGGGLVQPGNSLRLSCAASGFTFSSFGMSWVRQAPGKGLEWVSSISGSGSDTLTADSVKGRFTISRDNSKNTLYLQMNSLRAEDTAVYYCTIGGSLVRSSQGTLVTVSS
B24: CNG-HSA-115 (VHH)
VHH: B23 VHH with S35G, T60Y, D62P, A88P, I98F, G99A, V103S

molecular target: T1, human CD19 on CHO cells (human, UniProt P15391 20-556); test: flow cytometry, CHO cells, 100 nM IgG
T1 construct: whole, on cells; also called Cells Expressing Human CD19; CHO cells overexpressing the antigen
T1 sequence (looked up): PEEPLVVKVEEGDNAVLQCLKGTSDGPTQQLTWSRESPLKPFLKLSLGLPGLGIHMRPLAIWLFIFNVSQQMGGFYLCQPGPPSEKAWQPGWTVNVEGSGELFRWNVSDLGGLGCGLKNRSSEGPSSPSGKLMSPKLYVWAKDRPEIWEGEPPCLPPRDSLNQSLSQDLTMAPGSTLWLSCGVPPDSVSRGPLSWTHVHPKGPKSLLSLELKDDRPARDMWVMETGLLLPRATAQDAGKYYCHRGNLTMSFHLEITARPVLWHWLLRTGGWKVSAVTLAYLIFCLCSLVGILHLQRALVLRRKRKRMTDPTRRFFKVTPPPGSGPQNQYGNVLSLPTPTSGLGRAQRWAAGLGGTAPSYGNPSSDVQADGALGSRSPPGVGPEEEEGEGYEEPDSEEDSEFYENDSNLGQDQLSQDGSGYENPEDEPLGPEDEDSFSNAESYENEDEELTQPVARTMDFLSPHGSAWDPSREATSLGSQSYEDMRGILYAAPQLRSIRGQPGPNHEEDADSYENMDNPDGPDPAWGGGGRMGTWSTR
Procedure: The binding affinity of the antibodies to CD19 expressed on the cell surface was also measured. Briefly, approximately 100,000 Chinese hamster overy (CHO) cells overexpressing the antigen were washed with wash buffer and incubated with 100 μl 100 nM IgG for 15 minutes at room temperature. Cells were then washed twice with wash buffer and incubated with 100 μl of 1:100 Human-PE for 15 minutes on ice. Cells were then washed twice more with wash buffer and analyzed on a FACS Canto II analyzer (BD Biosciences).

In order of falling “Binding to Cells Expressing Human CD19 (FOB)” value:
1. B22  354 FOB
2. B21  351 FOB
3. B15  334 FOB
4. B19  327 FOB
5. B16  319 FOB
6. B18  315 FOB
7. B20  296 FOB
8. B13  293 FOB
9. B17  286 FOB
10. B12  267 FOB
11. B14  258 FOB
12. B5  241 FOB
13. B6  237 FOB
14. B3  234 FOB
15. B7  210 FOB
16. B10  195 FOB
17. B8  180 FOB
18. B4  153 FOB
19. B2  140 FOB
20. B9  135 FOB
21. B11  105 FOB
22. B1  71 FOB

molecular target: T2, human CD19 (human, UniProt P15391 20-291, biotinylated in the Biacore assay of Table 11); test: Octet HTX (ForteBio), IgG on AHC sensor, 1:1 fit
T2 construct: also called isolated CD19; Human CD19 Protein
T2 sequence (looked up): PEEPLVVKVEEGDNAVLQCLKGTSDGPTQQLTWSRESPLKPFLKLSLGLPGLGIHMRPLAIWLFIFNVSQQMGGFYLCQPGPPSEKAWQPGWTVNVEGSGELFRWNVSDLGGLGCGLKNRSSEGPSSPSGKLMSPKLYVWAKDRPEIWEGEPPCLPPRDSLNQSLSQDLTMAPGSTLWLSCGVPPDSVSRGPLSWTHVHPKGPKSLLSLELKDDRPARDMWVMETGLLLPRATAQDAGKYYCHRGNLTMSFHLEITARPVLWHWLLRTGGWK
Procedure: The binding affinity of the antibodies to isolated CD19 was measured by […] using a ForteBio Octet HTX system as previously described (see, e.g., Estep et al, High throughput solution-based measurement of antibody-antigen affinity and epitope binning. Mabs 5(2), 270-278 (2013)). Briefly, ForteBio affinity measurements were performed by loading IgGs on-line onto anti-hIgG Fc Capture (AHC) sensors. The sensors were equilibrated off-line in assay buffer for 30 minutes and then monitored on-line for 60 seconds for baseline establishment. The sensors with loaded IgGs were exposed to 100 nM […] for 3 minutes, and subsequently transferred to assay buffer for 3 minutes for off-rate measurement. All kinetics were analyzed using the 1:1 binding model.

In order of rising Kd:
1. B5  0.0859 nM
2. B6  0.104 nM
3. B17  0.106 nM
4. B3  0.107 nM
5. B4  0.135 nM
6. B15  0.144 nM
7. B19  0.144 nM
8. B20  0.144 nM
9. B7  0.156 nM
10. B16  0.164 nM
11. B21  0.164 nM
12. B10  0.187 nM
13. B22  0.189 nM
14. B11  0.248 nM
15. B18  0.277 nM
16. B9  0.289 nM
17. B14  0.298 nM
18. B12  0.346 nM
19. B13  0.353 nM
20. B2  0.367 nM
21. B8  0.5 nM
22. B1  2.25 nM

In order of rising koff:
1. B4  4e-05 s⁻¹
2. B5  4e-05 s⁻¹
3. B15  4e-05 s⁻¹
4. B17  4e-05 s⁻¹
5. B3  4.6e-05 s⁻¹
6. B6  4.66e-05 s⁻¹
7. B11  4.7e-05 s⁻¹
8. B16  5.26e-05 s⁻¹
9. B18  5.71e-05 s⁻¹
10. B20  5.72e-05 s⁻¹
11. B19  6e-05 s⁻¹
12. B7  6.69e-05 s⁻¹
13. B10  7.05e-05 s⁻¹
14. B9  8.19e-05 s⁻¹
15. B21  8.28e-05 s⁻¹
16. B14  9.12e-05 s⁻¹
17. B2  0.000101 s⁻¹
18. B12  0.000114 s⁻¹
19. B22  0.000114 s⁻¹
20. B13  0.000121 s⁻¹
21. B8  0.000175 s⁻¹
22. B1  0.000396 s⁻¹

molecular target: T3, human serum albumin (human, UniProt P02768 25-609); test: Octet HTX (ForteBio), HCAb on AHC sensor, 1:1 fit
T3 construct: also called HSA

In order of rising Kd:
1. B24  2.96 nM
2. B23  14.7 nM

In order of rising koff:
1. B24  0.000441 s⁻¹
2. B23  0.00221 s⁻¹

molecular target: cynomolgus serum albumin (cynomolgus, UniProt A2V9Z4 25-608); test: Octet HTX (ForteBio), HCAb on AHC sensor, 1:1 fit
Sequence (A2V9Z4 25-608 limits assumed): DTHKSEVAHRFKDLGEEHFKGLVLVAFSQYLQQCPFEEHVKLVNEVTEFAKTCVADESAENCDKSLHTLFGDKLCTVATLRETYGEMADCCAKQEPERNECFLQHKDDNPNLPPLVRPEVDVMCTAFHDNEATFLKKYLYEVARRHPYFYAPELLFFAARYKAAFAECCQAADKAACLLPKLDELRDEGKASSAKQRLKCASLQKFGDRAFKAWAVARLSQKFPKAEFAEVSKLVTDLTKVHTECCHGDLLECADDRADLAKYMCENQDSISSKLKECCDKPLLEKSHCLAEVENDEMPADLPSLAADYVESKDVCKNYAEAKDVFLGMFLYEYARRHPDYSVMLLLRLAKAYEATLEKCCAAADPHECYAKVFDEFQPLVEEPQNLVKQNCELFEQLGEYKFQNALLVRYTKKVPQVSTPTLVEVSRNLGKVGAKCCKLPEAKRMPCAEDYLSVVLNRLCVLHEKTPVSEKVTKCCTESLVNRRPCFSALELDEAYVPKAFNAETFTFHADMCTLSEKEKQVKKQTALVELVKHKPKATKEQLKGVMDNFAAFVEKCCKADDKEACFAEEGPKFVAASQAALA

In order of rising Kd:
1. B24  3.37 nM
2. B23  12 nM

In order of rising koff:
1. B24  0.000618 s⁻¹
2. B23  0.00173 s⁻¹

molecular target: T4, mouse serum albumin (mouse, UniProt P07724 25-608); test: Octet HTX (ForteBio), HCAb on AHC sensor, 1:1 fit
T4 construct: also called MSA
T4 sequence (P07724 25-608 limits assumed): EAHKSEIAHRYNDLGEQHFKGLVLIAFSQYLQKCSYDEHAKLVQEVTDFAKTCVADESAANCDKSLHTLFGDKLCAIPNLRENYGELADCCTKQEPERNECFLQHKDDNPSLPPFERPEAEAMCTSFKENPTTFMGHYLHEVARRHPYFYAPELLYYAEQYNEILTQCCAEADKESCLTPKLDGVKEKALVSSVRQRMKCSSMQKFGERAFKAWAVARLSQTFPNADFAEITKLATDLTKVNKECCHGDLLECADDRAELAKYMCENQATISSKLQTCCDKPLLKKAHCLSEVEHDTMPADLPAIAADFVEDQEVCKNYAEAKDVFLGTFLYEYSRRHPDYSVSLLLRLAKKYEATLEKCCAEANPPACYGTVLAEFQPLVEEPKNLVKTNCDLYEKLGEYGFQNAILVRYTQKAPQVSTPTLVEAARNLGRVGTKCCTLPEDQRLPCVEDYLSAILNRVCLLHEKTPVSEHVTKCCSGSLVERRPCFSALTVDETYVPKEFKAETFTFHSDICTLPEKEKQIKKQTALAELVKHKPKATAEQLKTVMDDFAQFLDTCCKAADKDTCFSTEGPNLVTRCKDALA

In order of falling Kd:
1. B23  17.5 nM
2. B24  6.43 nM

In order of falling koff:
1. B23  0.0038 s⁻¹
2. B24  0.00132 s⁻¹

molecular target: T4, mouse serum albumin; test: ratio of the Octet KD for mouse serum albumin to that for human serum albumin

In order of falling “Ratio of MSA-KD to HSA-KD” value:
1. B24  2.17
2. B23  1.2
